In PMC8605104 (STAR Protocols, 2021):

Assays:
[1] = molecular target: T1, bacteriophage T7 ejection protein gp16 (internal virion protein), N-terminal 10x His-tagged, full-length (bacteriophage T7, UniProt P03726 1-1318)
T1 sequence (looked up): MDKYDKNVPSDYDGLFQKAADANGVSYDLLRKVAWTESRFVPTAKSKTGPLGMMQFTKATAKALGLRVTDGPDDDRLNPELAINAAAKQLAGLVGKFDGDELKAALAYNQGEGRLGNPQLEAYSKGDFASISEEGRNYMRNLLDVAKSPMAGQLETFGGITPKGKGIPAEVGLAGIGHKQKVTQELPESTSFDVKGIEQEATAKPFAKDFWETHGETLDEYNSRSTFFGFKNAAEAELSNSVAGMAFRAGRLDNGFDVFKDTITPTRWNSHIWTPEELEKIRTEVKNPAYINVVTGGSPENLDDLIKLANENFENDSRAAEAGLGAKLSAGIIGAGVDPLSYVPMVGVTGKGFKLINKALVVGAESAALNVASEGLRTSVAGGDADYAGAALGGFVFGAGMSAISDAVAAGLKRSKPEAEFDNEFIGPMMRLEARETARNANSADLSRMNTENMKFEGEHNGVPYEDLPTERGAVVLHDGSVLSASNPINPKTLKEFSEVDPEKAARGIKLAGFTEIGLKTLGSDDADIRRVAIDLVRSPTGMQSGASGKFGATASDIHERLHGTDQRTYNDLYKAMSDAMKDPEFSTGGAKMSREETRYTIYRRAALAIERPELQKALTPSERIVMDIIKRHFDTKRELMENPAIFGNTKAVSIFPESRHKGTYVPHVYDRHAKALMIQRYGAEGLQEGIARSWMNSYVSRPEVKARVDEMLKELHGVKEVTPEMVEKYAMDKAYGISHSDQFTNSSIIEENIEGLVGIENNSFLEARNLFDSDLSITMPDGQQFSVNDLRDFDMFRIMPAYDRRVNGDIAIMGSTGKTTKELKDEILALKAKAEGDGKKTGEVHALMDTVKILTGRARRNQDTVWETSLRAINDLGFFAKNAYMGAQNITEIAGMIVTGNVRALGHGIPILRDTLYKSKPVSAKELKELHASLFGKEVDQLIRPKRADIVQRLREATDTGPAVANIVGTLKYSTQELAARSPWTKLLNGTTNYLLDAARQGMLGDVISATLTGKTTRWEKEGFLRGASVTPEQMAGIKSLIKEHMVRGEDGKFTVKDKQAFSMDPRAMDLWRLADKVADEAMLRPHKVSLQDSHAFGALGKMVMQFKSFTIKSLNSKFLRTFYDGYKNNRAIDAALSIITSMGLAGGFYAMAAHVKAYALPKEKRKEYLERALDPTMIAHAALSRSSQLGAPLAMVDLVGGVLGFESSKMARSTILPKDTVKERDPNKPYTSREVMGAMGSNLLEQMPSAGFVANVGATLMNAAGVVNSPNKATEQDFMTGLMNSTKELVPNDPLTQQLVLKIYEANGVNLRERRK

[2] = molecular target: the molecule itself

B1: bacteriophage T7 ejection protein gp15 (internal virion protein), N-terminal 10x His-tagged, full-length (natural protein, UniProt P03725 1-747, looked up)
chain: MSKIESALQAAQPGLSRLRGGAGGMGYRAATTQAEQPRSSLLDTIGRFAKAGADMYTAKEQRARDLADERSNEIIRKLTPEQRREALNNGTLLYQDDPYAMEALRVKTGRNAAYLVDDDVMQKIKEGVFRTREEMEEYRHSRLQEGAKVYAEQFGIDPEDVDYQRGFNGDITERNISLYGAHDNFLSQQAQKGAIMNSRVELNGVLQDPDMLRRPDSADFFEKYIDNGLVTGAIPSDAQATQLISQAFSDASSRAGGADFLMRVGDKKVTLNGATTTYRELIGEEQWNALMVTAQRSQFETDAKLNEQYRLKINSALNQEDPRTAWEMLQGIKAELDKVQPDEQMTPQREWLISAQEQVQNQMNAWTKAQAKALDDSMKSMNKLDVIDKQFQKRINGEWVSTDFKDMPVNENTGEFKHSDMVNYANKKLAEIDSMDIPDGAKDAMKLKYLQADSKDGAFRTAIGTMVTDAGQEWSAAVINGKLPERTPAMDALRRIRNADPQLIAALYPDQAELFLTMDMMDKQGIDPQVILDADRLTVKRSKEQRFEDDKAFESALNASKAPEIARMPASLRESARKIYDSVKYRSGNESMAMEQMTKFLKESTYTFTGDDVDGDTVGVIPKNMMQVNSDPKSWEQGRDILEEARKGIIASNPWITNKQLTMYSQGDSIYLMDTTGQVRVRYDKELLSKVWSENQKKLEEKAREKALADVNKRAPIVAATKAREAAAKRVREKRKQTPKFIYGRKE
**Q.** Which results are given for B1?
**A.** stoichiometry N [1]: 1 gp15:gp16 (6:6); stoichiometry N [2]: 6
